The experiment concerns the target T1, IKK2, endogenous (human, UniProt O14920 1-756).
T1 construct: mature; also called IKKβ
T1 sequence (looked up): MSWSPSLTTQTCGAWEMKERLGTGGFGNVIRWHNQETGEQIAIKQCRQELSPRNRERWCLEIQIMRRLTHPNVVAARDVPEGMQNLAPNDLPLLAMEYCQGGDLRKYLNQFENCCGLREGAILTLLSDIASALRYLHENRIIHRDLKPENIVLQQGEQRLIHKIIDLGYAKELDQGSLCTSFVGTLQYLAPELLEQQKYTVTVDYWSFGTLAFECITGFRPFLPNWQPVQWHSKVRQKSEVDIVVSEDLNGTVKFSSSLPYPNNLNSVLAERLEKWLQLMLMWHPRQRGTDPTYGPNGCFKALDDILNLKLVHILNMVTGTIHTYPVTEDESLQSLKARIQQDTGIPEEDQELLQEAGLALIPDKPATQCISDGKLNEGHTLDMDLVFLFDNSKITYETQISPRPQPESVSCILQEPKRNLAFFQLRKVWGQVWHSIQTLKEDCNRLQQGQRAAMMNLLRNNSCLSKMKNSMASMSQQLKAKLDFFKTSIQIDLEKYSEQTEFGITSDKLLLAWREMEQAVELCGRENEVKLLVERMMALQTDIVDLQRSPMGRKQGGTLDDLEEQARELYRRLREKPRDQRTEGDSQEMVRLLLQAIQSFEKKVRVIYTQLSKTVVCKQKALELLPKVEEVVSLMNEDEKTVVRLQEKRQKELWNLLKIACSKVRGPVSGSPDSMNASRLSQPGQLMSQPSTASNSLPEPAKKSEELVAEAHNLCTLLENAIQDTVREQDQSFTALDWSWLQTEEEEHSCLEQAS
The experiment is described as follows: western blot of the p55 TNF receptor complex from Ramos cells after TNF (FIG. 5c). For orientation: A western blot detects proteins with antibodies after separation by electrophoresis.

The text below walks through data of patent US20080025968A1 (YEDA RESEARCH AND DEVELOPMENT, published 2008).

B1: p55 TNF receptor, endogenous in Ramos cells (receptor, human, UniProt P19438 30-455, looked up)
chain: LVPHLGDREKRDSVCPQGKYIHPQNNSICCTKCHKGTYLYNDCPGPGQDTDCRECESGSFTASENHLRHCLSCSKCRKEMGQVEISSCTVDRDTVCGCRKNQYRHYWSENLFQCFNCSLCLNGTVHLSCQEKQNTVCTCHAGFFLRENECVSCSNCKKSLECTKLCLPQIENVKGTEDSGTTVLLPLVIFFGLCLLSLLFIGLMYRYQRWKSKLYSIVCGKSTPEKEGELEGTTTKPLAPNPSFSPTPGFTPTLGFSPVPSSTFTSSSTYTPGDCPNFAAPRREVAPPYQGADPILATALASDPIPNPLQKWEDSAHKPQSLDTDDPATLYAVVENVPPLRWKEFVRRLGLSDHEIDRLELQNGRCLREAQYSMLATWRRRTPRREATLELLGRVLRDMDLLGCLEDIEEALCGPAALPPAPSLLR
notes: whole, on cells; TNF-receptor complex precipitated as described by Zhang et al., 2000
Regarding B1, the binding result was “binds”.
